Each block holds one binder with its values, some of them ahead of it. Non-standard residues stand in square brackets, D forms with d. No end group written: not given here. *: point of attachment. Biotin = O=C1N[C@H]2[C@H](CS[C@H]2CCCCC(=O)*)N1; Ahx = NCCCCCC(=O)O
Tests used:
[1] = molecular target: recombinant CD40 associated with the constant part of the heavy chain of mouse IgG2a (human CD40 muIg fusion protein, ANCELL Corporation) (human; mouse) (UniProt P25942); test: SPR (BIAcore 3000): CD40 muIg captured by anti-mouse Ig, ligand injected as analyte
Chain of recombinant CD40 associated with the constant part of the heavy chain of mouse IgG2a (human CD40 muIg fusion protein, ANCELL Corporation) (human; mouse) (P25942 21-193 limits assumed): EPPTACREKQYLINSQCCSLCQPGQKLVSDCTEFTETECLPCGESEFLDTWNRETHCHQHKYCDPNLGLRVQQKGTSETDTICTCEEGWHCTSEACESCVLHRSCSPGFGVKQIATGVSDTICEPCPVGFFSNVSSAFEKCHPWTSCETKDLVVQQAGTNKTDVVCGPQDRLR

[2] = molecular target: membranous CD40 on Burkitt's lymphoma cells (BL41, Raji) (UniProt P25942); test: flow cytometry on BL41 cells, 2.5 µM biotinylated L41 developed with streptavidin-FITC; the control panel without streptavidin-FITC (BL41 L41 2.5 -SAvFITC) prints 4.3% for the same quadrant
Chain of membranous CD40 on Burkitt's lymphoma cells (BL41, Raji) (P25942 21-277 limits assumed): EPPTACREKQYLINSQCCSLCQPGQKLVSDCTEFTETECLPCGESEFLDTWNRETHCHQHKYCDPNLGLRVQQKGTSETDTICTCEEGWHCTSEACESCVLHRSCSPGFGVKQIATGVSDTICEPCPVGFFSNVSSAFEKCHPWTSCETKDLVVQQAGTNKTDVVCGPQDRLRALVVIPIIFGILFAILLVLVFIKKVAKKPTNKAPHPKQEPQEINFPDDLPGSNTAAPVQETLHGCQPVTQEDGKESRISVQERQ

[3] = molecular target: membranous CD40 on Burkitt's lymphoma cells (BL41, Raji) (UniProt P25942); test: flow cytometry on BL41 cells, 2.5 µM biotinylated L41 developed with streptavidin-FITC; the control panel without streptavidin-FITC (BL41 L41 2.5 -SAvFITC) prints 1.3% for the same quadrant
[4] = molecular target: T1, recombinant CD40 associated with the constant part of the heavy chain of mouse IgG2a (human CD40 muIg fusion … (human; mouse, UniProt P25942 21-193, limits assumed); test: SPR (BIAcore 3000): CD40 muIg captured by anti-mouse Ig, ligand injected as analyte
T1 construct: Bought reagent; Captured on the chip by rabbit antibodies against the constant part of mouse immunoglobulins; not shown: constant part of the heavy chain of mouse IgG2a
T1 sequence (P25942 21-193 limits assumed): as the sequence (P25942 21-193 limits assumed) above

Kd [1]: 28 nM
% of cells in the upper left quadrant (FL1-H above the line, low FSC-H) [2]: 10.2%
% of cells in the upper right quadrant (FL1-H above the line, high FSC-H) [3]: 23.5%
B1: L41 ligand (compound A), biotinylated (peptide)
peptide: KGYY[Ahx]
chain: [dA]K[dK](Biotin)K[dA]K
modifications: also: three KGYY-Ahx arms, each Ahx amide-linked to side-chain amines of Lys2, Lys4, Lys6 of the cyclic chain, head-to-tail to a chain's N/C-terminus

Kd [4]: 310 nM
B2: L40 ligand, compound of formula (III-e) (peptide)
peptide: H-K[dP]YY[Ahx]
chain: K[dA]K[dA]K[dA]
modifications: also: chain 2 cyclised head to tail, three chain-1 arms, each Ahx carboxyl amide-linked to one Lys side-chain amine of cyclic chain 2 (C3-symmetric trimer), head-to-tail to a chain's N/C-terminus
notes: Branched synthetic trimer with C3 symmetry: three pentapeptide arms on a cyclic hexapeptide

From US20100183642A1 (CENTRE NATIONAL DE LA RECHERCHE SCIENTIFIQUE, published 2010)
